Assay results as given in US20110300138A1 (published 2011).
Each block holds one molecule with its values, some of them ahead of it.

Tests used:
[1] = target: TSH receptor (full length human TSHR) coated on tubes (human) (UniProt P16473); experiment: 125I-TSH binding inhibition read against NIBSC 90/672; 100 ng/mL, in serum
[2] = target: TSH receptor (TSHR), full length human, coated on tubes (human) (UniProt P16473); experiment: inhibition of 125I-TSH binding to TSHR coated tubes; 10 µg/mL, diluted in assay buffer
[3] = target: human thyroid stimulating hormone receptor (TSHR), full length (human) (UniProt P16473); experiment: 125I-K1-70 Fab (competitor) binding to TSHR coated tubes; negative control MAb 0.001 µg/mL in HBD serum
[4] = target: TSH receptor (TSHR) coated on tubes (human) (UniProt P16473); experiment: inhibition of 125I-K1-70 IgG binding to TSHR coated tubes; negative control 0.01 µg/mL in HBD serum pool
[5] = target: TSHR with Thr257 mutated to Ala, expressed in CHO cells (human) (UniProt P16473); experiment: cell-based or functional assay
[6] = target: wild type TSHR (human TSH receptor) expressed in CHO cells (human) (UniProt P16473); experiment: cell-based or functional assay
[7] = target: TSH receptor (full length human TSHR) (human) (UniProt P16473); experiment: competition ELISA: inhibition of M22 Fab-peroxidase (competitor) binding to TSHR coated wells; negative control at 0.1 µg/mL diluted in assay buffer
[8] = target: TSH receptor (full length human TSHR) (human) (UniProt P16473); experiment: competition ELISA: inhibition of M22 Fab-peroxidase (competitor) binding to TSHR coated wells; negative control at 1 µg/mL diluted in HBD serum pool
[9] = target: TSH receptor (TSHR), full length human, coated on tubes (human) (UniProt P16473); experiment: inhibition of 125I-K1-18 IgG binding to TSHR coated tubes; competitor 125I-K1-18 IgG; negative control sample at 1 µg/mL in assay buffer
[10] = target: thyroid stimulating hormone receptor (TSHR), full length human TSHR (human) (UniProt P16473); experiment: TSH-biotin competition ELISA, TSHR coated wells; negative control, 0.1 µg/mL in assay buffer
[11] = target: TSH receptor (TSHR), full length human, coated on tubes (human) (UniProt P16473); experiment: inhibition of 125I-K1-18 IgG binding to TSHR coated tubes; competitor 125I-K1-18 IgG; negative control sample at 100 µg/mL in assay buffer
[12] = target: TSH receptor (TSHR), full length human, coated on tubes (human) (UniProt P16473); experiment: inhibition of 125I-K1-18 IgG binding to TSHR coated tubes; competitor 125I-K1-18 IgG; negative control sample at 100 µg/mL in HBD serum
[13] = target: TSHR (full length) coated on tubes (human) (UniProt P16473); experiment: inhibition of 125I-K1-18 Fab (competitor) binding to TSHR coated tubes; negative control 100 µg/mL in HBD serum
[14] = target: TSH receptor (full length human TSHR) (human) (UniProt P16473); experiment: competition ELISA: inhibition of M22 Fab-peroxidase (competitor) binding to TSHR coated wells; test sample at 100 µg/mL diluted in HBD serum pool
[15] = target: TSHR (full length) coated on tubes (human) (UniProt P16473); experiment: inhibition of 125I-K1-18 Fab (competitor) binding to TSHR coated tubes; test sample 1 µg/mL in assay buffer
[16] = target: TSHR (thyroid stimulating hormone receptor), full length human (human) (UniProt P16473); experiment: competitor ^125I-K1-70 IgG, TSHR coated tubes; 1 µg/mL in HBD
[17] = target: TSH receptor (TSHR), full length human, coated on tubes (human) (UniProt P16473); experiment: inhibition of 125I-TSH binding to TSHR coated tubes; 0.01 µg/mL, diluted in assay buffer
[18] = target: thyroid stimulating hormone receptor (TSHR), full length, coated on tubes (human) (UniProt P16473); experiment: inhibition of 125I-TSH binding, TSHR coated tubes; antibody 0.1 µg/mL in HBD serum pool
[19] = target: TSH receptor (TSHR) coated on tubes (human) (UniProt P16473); experiment: inhibition of 125I-K1-70 IgG binding to TSHR coated tubes; sample 1 µg/mL in assay buffer
[20] = target: human TSH receptor (full length) coated on ELISA plate wells (human) (UniProt P16473); experiment: TSH-biotin binding inhibition ELISA, TSHR coated wells; 0.1 µg/mL in assay buffer
[21] = target: TSH receptor (TSHR) coated on tubes (human) (UniProt P16473); experiment: inhibition of 125I-K1-70 IgG binding to TSHR coated tubes; sample 100 µg/mL in HBD serum pool
[22] = target: human TSH receptor (full length) coated on ELISA plate wells (human) (UniProt P16473); experiment: TSH-biotin binding inhibition ELISA, TSHR coated wells; 100 µg/mL in assay buffer
[23] = target: human TSH receptor (full length) coated on ELISA plate wells (human) (UniProt P16473); experiment: TSH-biotin binding inhibition ELISA, TSHR coated wells; 10 µg/mL in assay buffer
[24] = target: human TSH receptor (full length) coated on ELISA plate wells (human) (UniProt P16473); experiment: TSH-biotin binding inhibition ELISA, TSHR coated wells; 0.1 µg/mL in HBD serum pool
[25] = target: human thyroid stimulating hormone receptor (TSHR), full length (human) (UniProt P16473); experiment: 125I-K1-18 Fab competition, TSHR coated tubes; 1 µg/mL in assay buffer
[26] = target: thyroid stimulating hormone receptor (TSHR), full length, coated on tubes (human) (UniProt P16473); experiment: inhibition of 125I-TSH binding, TSHR coated tubes; antibody 0.1 µg/mL in assay buffer; mean of duplicate
[27] = target: human thyroid stimulating hormone receptor (TSHR), full length (human) (UniProt P16473); experiment: 125I-K1-18 Fab competition, TSHR coated tubes; 0.01 µg/mL in assay buffer

units/L [1]: 9.9 units/L
units/mg [1]: 99 units/mg
Molecule: M22 IgG (antibody)

Inhibition of binding (%) [2]: -5.7%
Inhibition of binding (%) [3]: -12.1%
Inhibition of binding (%) [4]: 3.2%
% inhibition of TSH stimulation; 5B3 10 µg/mL [5]: 0%
% inhibition of TSH stimulation; 5B3 100 µg/mL [5]: 7%
Cyclic AMP produced; 5B3 10 µg/mL + TSH 3 ng/mL [5]: 94.2 pmol/mL
Cyclic AMP produced; 5B3 100 µg/mL + TSH 3 ng/mL [5]: 86.8 pmol/mL
Mutated/wild type (%) of cyclic AMP produced; 5B3 10 µg/mL + TSH 3 ng/mL [5]: 110%
Mutated/wild type (%) of cyclic AMP produced; 5B3 100 µg/mL + TSH 3 ng/mL [5]: 104%
Cyclic AMP produced; 5B3 10 µg/mL + TSH 3 ng/mL [6]: 85.9 pmol/mL
Cyclic AMP produced; 5B3 100 µg/mL + TSH 3 ng/mL [6]: 83.7 pmol/mL
Inhibition of binding (%) [7]: 1.4%
Inhibition of binding (%) [8]: 9.7%
Inhibition of binding (%) [9]: -3.8%
Inhibition of binding (%) [10]: -7.8%
Inhibition of binding (%) [11]: 6.7%
Inhibition of binding (%) [12]: 29.4%
Inhibition of binding (%) [13]: -1.1%
Molecule: 5B3 IgG (antibody)

Inhibition of binding (%) [14]: 65.9%
Inhibition of binding (%) [15]: 66.5%
Inhibition of binding (%) [16]: 40.5%
Inhibition of binding (%) [17]: 15.8%
Molecule: 9D33 IgG (antibody)

Inhibition of binding (%) [18]: 16.2%
Inhibition of binding (%) [19]: 56.4%
% inhibition of TSH-biotin binding [20]: 34.9%
Inhibition of binding (%) [21]: 68.5%
% inhibition of TSH-biotin binding [22]: 91.2%
% inhibition of TSH-biotin binding [23]: 58.2%
% inhibition of TSH-biotin binding [24]: 21.6%
Inhibition of binding (%) [25]: 52.5%
Inhibition of binding (%) [26]: 21.3%
Inhibition of binding (%) [27]: 3%
B1: 5C9 IgG (antibody, from another filing, V domains shown)
VH: EVQLVESGGGLIQPGGSLRLSCAASGFTVSSNYMSWVRQAPGKGLEWVSVTYSGGSTSYADSVKGRFTISRDNSKNTLYLQMNSLRAEDTAVYYCARGGRYCSSISCYARSGCDYWGQGTLVTVSS
VL: AIQMTQSPSSLSASVGDRVTITCRASQSISNYLNWYQQKPGKAPKLLIYAASSLQSGVPSRFSGSGSGTDFTLTISSLQPEDFATYYCQQSYSSPSTTFGQGTKLEIK
